The target of assay [1] is recombinant human DcR3 (decoy receptor 3) (human) (UniProt O95407). The assay is described as follows: SPR; Biacore 3000; DcR3 amine-coupled to a CM5 chip; TRAIL 1-2048 nM or LIGHT 1-512 nM flowed at 20 µl/minute; HBS-EP buffer (10 mM HEPES pH 7.4, 150 mM NaCl, 3.4 mM EDTA, 0.005% Surfactant P20); 1:1 binding model, global analysis.
The target is the same in assay [2]. The assay is described as above. The source holds these as a separate data set.

Where two headings read alike, the source gives them in different places.

recombinant human DcR3 (decoy receptor 3) (human), sequence (O95407 30-300): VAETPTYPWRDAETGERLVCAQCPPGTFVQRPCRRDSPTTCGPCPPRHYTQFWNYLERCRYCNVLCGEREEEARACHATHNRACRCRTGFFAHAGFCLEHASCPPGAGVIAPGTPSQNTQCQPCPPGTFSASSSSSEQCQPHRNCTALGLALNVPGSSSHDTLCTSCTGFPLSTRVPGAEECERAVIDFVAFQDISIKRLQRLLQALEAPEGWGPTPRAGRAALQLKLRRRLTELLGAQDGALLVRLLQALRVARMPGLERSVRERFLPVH

Usually Kd stands for the equilibrium constant for the complex coming apart. In general, koff refers to the rate constant with which the complex falls apart. By kon is commonly meant a measure of how fast the partners come together. With “recombinant human TRAIL (TNF-related apoptosis-inducing ligand) (from UniProt P50591 1-281)”, in assay [1], the Kd was 52.8 nM, the koff turned out to be 0.00104 s⁻¹ and the kon turned out to be 19400 M⁻¹ s⁻¹. Moreover, the kon in assay [2] was 19700 M⁻¹ s⁻¹.

The values are drawn from publication PMC3808375, “Reduction of Decoy Receptor 3 Enhances TRAIL-Mediated Apoptosis in Pancreatic Cancer” (PLoS ONE, 2013).
